Target: human CCR5 (human) (UniProt P51681)
Assay: cell-based or functional assay

human CCR5 (human), sequence (P51681 whole entry): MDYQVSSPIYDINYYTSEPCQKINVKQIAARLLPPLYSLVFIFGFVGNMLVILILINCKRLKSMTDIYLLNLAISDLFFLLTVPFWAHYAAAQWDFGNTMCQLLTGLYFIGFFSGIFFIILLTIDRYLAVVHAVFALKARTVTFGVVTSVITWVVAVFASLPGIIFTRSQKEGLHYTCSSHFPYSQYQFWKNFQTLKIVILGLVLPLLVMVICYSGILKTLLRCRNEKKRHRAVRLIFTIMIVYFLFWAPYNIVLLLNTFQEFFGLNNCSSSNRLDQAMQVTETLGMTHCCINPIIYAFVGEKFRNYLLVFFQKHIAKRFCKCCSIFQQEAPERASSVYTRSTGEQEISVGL

CCR5 receptor downmodulation on CHO cells expressing CCR5 (FACS) at 1 nM AOP-RANTES: 50%
CCR5 receptor downmodulation on CHO cells expressing CCR5 (FACS) at 100 nM AOP-RANTES: 90%
Substance: AOP-RANTES (from UniProt P13501 24-91) (ligand)

Reference: patent US20060078537A1
